From the supplement of paper PMC11136658

Test system: peptide library, one residue held at a place counted from the Y acceptor
Test: relative phosphorylation of the sub-library (ratio to the mean residue at this position); higher = residue favoured
Outline: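 In 384-well plates, purified recombinant kinases were incubated for 90 min with 50 μM ATP containing γ-32P-ATP and biotinylated Tyr-centred peptide libraries, each mixture fixing one residue at a single position between −5 and +5. After capture on streptavidin membranes and rinsing, peptides were quantified by phosphorimaging with ImageQuant. Per-position intensities were scaled to the sum of the 18 (Ser/Thr-free library: 16) randomized residues, then multiplied by that number.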

FLT3, construct: aa564-end, human, sequence (P36888 564-993, looked up): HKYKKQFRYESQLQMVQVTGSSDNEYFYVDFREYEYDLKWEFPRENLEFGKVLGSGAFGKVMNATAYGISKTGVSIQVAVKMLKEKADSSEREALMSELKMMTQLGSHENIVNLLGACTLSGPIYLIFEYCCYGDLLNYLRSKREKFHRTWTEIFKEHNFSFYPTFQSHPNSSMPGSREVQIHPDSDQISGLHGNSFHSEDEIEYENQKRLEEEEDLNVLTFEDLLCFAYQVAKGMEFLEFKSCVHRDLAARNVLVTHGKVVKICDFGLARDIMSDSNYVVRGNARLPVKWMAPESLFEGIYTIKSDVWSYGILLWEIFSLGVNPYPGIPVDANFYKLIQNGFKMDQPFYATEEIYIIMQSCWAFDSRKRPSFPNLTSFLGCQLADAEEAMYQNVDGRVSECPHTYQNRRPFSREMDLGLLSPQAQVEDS
FLT1, construct: aa748-end, human, sequence (P17948 748-1338, looked up): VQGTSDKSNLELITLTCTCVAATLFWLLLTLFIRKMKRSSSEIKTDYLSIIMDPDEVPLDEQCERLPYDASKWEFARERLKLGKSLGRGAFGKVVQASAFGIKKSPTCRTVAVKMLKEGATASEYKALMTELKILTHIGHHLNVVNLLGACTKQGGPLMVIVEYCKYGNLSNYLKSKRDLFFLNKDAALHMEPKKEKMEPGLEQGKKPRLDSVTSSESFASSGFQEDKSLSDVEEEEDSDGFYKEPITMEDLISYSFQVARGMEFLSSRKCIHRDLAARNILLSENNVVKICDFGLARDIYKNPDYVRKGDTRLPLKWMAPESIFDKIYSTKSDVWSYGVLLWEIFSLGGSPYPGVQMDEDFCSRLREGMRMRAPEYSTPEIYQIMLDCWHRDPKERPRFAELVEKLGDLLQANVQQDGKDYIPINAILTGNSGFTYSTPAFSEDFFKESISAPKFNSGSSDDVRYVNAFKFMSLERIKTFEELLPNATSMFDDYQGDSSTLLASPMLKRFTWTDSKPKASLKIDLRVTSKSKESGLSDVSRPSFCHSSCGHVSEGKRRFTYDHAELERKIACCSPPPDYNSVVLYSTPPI

FGR, construct: Full length, human (from UniProt P09769)
relative phosphorylation
Conditions	at +1	at +2	at +3	at +4	at +5	at -1	at -2	at -3	at -4	at -5
A fixed	2.2	1.05	0.869	0.85	0.72	0.929	0.952	0.88	1.03	0.985
D fixed	0.746	0.588	0.464	0.599	0.901	1.07	1.48	1.52	1.29	1.1
E fixed	0.732	0.949	0.432	0.759	0.875	1.89	1.37	1.52	1.36	0.85
F fixed	0.643	1.12	2.33	1.21	1.25	0.601	0.711	0.915	1.07	1.07
G fixed	2.67	0.888	0.927	1.31	0.896	0.558	1.5	1.15	1.15	1.24
H fixed	0.762	0.846	0.969	0.953	0.936	1.45	0.995	0.999	0.933	0.966
I fixed	0.827	0.906	1.3	0.792	0.71	1.86	0.626	0.635	0.829	0.907
K fixed	0.485	0.947	0.664	1.16	1.27	0.32	0.641	0.792	0.856	0.991
L fixed	0.669	0.903	0.954	0.884	0.831	1.02	0.747	0.746	1.07	0.939
M fixed	1.01	1.02	0.806	1.05	0.751	0.754	0.576	0.799	0.83	0.945
N fixed	0.757	1.02	0.666	0.928	1.14	0.683	1.56	1.26	0.798	1.06
P fixed	0.226	0.839	1.02	1.2	0.977	2.09	0.878	1.02	1.17	1.15
Q fixed	0.959	0.987	0.726	1.06	0.95	0.753	1.16	0.922	1.04	0.944
R fixed	0.519	1.22	0.98	1.39	1.4	0.291	0.738	0.883	0.875	1.1
S fixed	1.52	1.14	0.882	0.862	1.11	0.572	1.43	1.19	0.841	0.875
T fixed	1.14	1.2	0.795	0.893	1.06	1.21	1.03	0.908	0.681	0.748
V fixed	0.955	0.904	1.05	0.781	0.712	1.38	0.738	0.594	0.733	0.749
W fixed	1.17	1.48	2.17	1.33	1.52	0.556	0.859	1.26	1.45	1.38
pThr fixed	1.35	1.11	0.787	0.528	0.963	1.12	1.48	1.74	1.05	1.02
pTyr fixed	1.57	1.13	0.585	0.593	0.94	0.966	2.02	1.99	1.38	1.05

FLT1, construct: aa748-end, human (from UniProt P17948)
relative phosphorylation
Conditions	at +1	at +2	at +3	at +4	at +5	at -1	at -2	at -3	at -4	at -5
A fixed	0.624	0.689	0.604	0.797	0.722	0.496	0.885	0.899	0.91	0.956
D fixed	0.478	1.49	0.636	1.1	1.01	3.57	1.75	1.66	1.4	1.24
E fixed	0.487	0.899	0.582	0.817	0.933	2.46	1.57	1.66	1.38	1.1
F fixed	2.3	1.38	1.99	0.981	1.13	0.92	0.797	1.01	0.956	1.14
G fixed	0.478	0.439	0.633	0.845	0.911	0.446	1.11	1.03	1.1	1.1
H fixed	1.38	1.17	0.7	1.3	1.17	1.18	1.07	1.22	1.12	1.24
I fixed	1.34	0.698	1.46	0.709	0.639	0.948	0.597	0.599	0.653	0.745
K fixed	0.683	1.21	0.625	1.39	1.27	0.432	1.01	0.853	1.01	1.14
L fixed	0.873	0.86	1.63	0.787	0.844	0.639	0.633	0.729	0.693	0.727
M fixed	1	0.867	1.6	0.8	0.786	0.559	0.696	0.73	0.797	0.801
N fixed	0.533	1.19	0.755	1.06	1.11	1.16	1.16	1.17	0.929	0.953
P fixed	0.415	0.574	1.02	1.4	1.28	0.525	1.08	0.781	0.897	1.03
Q fixed	0.957	0.926	0.684	0.88	1.09	0.81	1.14	1.05	1.02	0.936
R fixed	0.875	1.53	0.729	1.46	1.25	0.458	1.13	1.01	1.1	1.11
S fixed	0.67	0.923	0.698	0.968	0.83	0.462	1.14	1.08	0.867	0.982
T fixed	0.987	1.11	0.666	0.83	0.839	0.705	1.04	0.906	0.887	0.891
V fixed	1.94	0.766	1.09	0.681	0.723	0.747	0.655	0.594	0.701	0.763
W fixed	1.63	1.32	1.27	0.985	1.12	0.649	0.724	1.01	1.34	1.02
pThr fixed	0.947	2.03	0.788	1.08	0.963	2.55	1.42	2.05	1.86	1.78
pTyr fixed	2.58	2.77	0.88	0.609	0.679	2.54	2.3	3.12	2.64	1.66

FLT3, construct: aa564-end, human (from UniProt P36888)
relative phosphorylation
Conditions	at +1	at +2	at +3	at +4	at +5	at -1	at -2	at -3	at -4	at -5
A fixed	0.822	0.62	0.639	0.968	0.955	0.749	0.806	0.766	1.05	0.952
D fixed	0.318	0.629	0.321	0.688	0.696	1.49	1.19	1.44	1.33	1.14
E fixed	0.643	0.89	0.227	0.826	0.771	1.2	1.15	1.69	1.56	1.15
F fixed	2.12	1.22	1.72	0.984	1.18	1.12	0.669	0.834	1	0.998
G fixed	0.431	0.368	0.603	0.904	1.19	0.574	0.972	0.786	1.21	1.16
H fixed	1.7	0.78	0.96	1	1.15	1.56	1.1	0.946	0.938	0.976
I fixed	1.6	1.19	1.52	1.05	0.961	1.25	0.954	0.688	0.913	0.871
K fixed	0.705	1.02	0.895	1.2	0.902	0.583	0.843	1	0.874	1.05
L fixed	1.21	1.2	1.3	0.878	1.07	1.18	0.88	0.878	1.02	0.997
M fixed	1.2	1	1.09	1.22	1.18	1.02	0.701	1.03	0.889	0.869
N fixed	0.455	1.1	0.54	0.807	0.864	1.25	1.23	1.46	0.951	1.36
P fixed	0.297	0.685	0.959	0.732	1.18	0.777	1.08	0.719	0.903	0.833
Q fixed	1	0.989	0.665	1.17	0.839	1.11	1.26	1.03	1.21	1.17
R fixed	1.01	1.63	1.6	1.89	1.06	0.639	0.957	1.27	0.924	1.43
S fixed	0.687	0.774	0.689	0.858	0.888	0.579	1.05	0.832	0.656	0.717
T fixed	0.77	0.814	0.706	0.741	1.22	0.778	0.894	0.708	0.614	0.612
V fixed	1.61	1.16	1.65	1.08	0.938	1.4	1.52	0.878	0.808	0.787
W fixed	1.43	1.94	1.91	1	0.961	0.746	0.75	1.04	1.15	0.928
pThr fixed	0.505	0.966	0.209	0.413	0.512	1.02	0.971	1.23	0.887	1.02
pTyr fixed	1.92	1.34	0.334	0.649	0.693	2.37	1.29	1.63	1.43	1.11
